Common to all, as to assay: pull-down
Assay [1] deals with T1, GST-tagged Mgs1* (D31A) (S. cerevisiae, UniProt P40151 1-587, D31A).
T1 sequence: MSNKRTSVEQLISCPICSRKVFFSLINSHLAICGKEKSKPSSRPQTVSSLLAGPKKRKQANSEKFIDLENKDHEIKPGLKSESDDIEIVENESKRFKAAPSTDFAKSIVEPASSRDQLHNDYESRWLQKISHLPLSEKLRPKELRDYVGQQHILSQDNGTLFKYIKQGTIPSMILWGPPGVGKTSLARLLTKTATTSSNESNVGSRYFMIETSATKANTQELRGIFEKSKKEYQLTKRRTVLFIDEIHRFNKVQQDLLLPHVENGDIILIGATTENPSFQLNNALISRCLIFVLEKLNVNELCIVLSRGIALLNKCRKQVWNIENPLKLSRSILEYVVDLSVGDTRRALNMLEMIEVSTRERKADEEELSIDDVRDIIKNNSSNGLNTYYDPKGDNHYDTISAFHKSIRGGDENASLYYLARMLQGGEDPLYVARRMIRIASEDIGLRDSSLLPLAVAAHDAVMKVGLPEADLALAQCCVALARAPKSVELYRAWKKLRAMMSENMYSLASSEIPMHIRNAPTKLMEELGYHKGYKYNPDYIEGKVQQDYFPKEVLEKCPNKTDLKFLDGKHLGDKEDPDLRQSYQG

Assay [2] deals with T2, GST-tagged Mgs1 (S. cerevisiae, UniProt P40151 1-587).
T2 sequence: T1 sequence with A31D

In assay [3] the target is T1, GST-tagged Mgs1* (D31A). This is another data set of the same source.
The target in assay [4] is T2, GST-tagged Mgs1. This is another data set of the same source.

Substitutions are numbered along the chain they refer to. Where two headings read alike, the source gives them in different places.

B1: His6-tagged PCNA (natural protein)
chain: MLEAKFEEASLFKRIIDGFKDCVQLVNFQCKEDGIIAQAVDDSRVLLVSLEIGVEAFQEYRCDHPVTLGMDLTSLSKILRCGNNTDTLTLIADNTPDSIILLFEDTKKDRIAEYSLKLMDIDADFLKIEELQYDSTLSLPSSEFSKIVRDLSQLSDSINIMITKETIKFVADGDIGSGSVIIKPFVDMEHPETSIKLEMDQPVDLTFGAKYLLDIIKGSSLSDRVGIRLSSEAPALFQFDLKSGFLQFFLAPKFNDEE
For B1, the binding result in assay [1] and in assay [2] was “binds” each time.

B2: untagged PCNA (unmodified) (natural protein)
chain: B1 chain
For B2, the binding result in assay [3] and in assay [4] was “binds” throughout.

Values taken from article PMC3245944 (Nucleic Acids Research, 2011).
